# Where a chain is given by its changes, count along the chain named.
# T1: human GIP receptor (human, UniProt P48546 22-466)
# T1 sequence (looked up): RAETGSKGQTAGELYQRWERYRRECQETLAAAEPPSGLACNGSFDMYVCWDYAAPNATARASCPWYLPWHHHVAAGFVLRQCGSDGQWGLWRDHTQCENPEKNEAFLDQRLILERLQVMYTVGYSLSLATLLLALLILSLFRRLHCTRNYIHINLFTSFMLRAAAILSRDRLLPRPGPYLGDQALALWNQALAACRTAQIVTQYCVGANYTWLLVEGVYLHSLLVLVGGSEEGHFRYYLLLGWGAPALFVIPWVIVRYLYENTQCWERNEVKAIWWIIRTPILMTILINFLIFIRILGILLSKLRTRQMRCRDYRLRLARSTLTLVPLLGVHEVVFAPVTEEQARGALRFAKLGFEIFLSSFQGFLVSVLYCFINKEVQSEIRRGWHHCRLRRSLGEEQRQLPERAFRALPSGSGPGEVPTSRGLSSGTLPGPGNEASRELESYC
# T2: human GIP receptor (human, UniProt P48546 22-466)
# T2 construct: whole, on cells; also called hGIPR; human glucose-dependent insulinotropic polypeptide receptor
# T2 sequence (looked up): T1 sequence (looked up)
# B1: Y-Aib-EGT-αMeF(2F)-TSD-4Pal-SI-αMeL-LD-Orn-K((2-[2-(2-Amino-ethoxy)-ethoxy]-acetyl)-(γ-Glu)-(2-[2-(2-Amino-ethoxy)-ethoxy]-acetyl)-CO-(CH2)12-CO2H)AQ-Aib-EFI-(D … (peptide)
# peptide: YXEGTXTSDXSIXLDXKAQXEFIXXLIEGGKSSGAPPPS
# modifications: Aib2, αMeF(2F)6, 4Pal10, αMeL13, Orn16, K17(Z1), Aib20, D-Glu24, αMeY25, K31(Z1), C-term NH2; Z1=AEEA-(γ-Glu)-AEEA-CO-(CH2)12-CO2H
# B2: Y-Aib-EGT-αMeF(2F)-TSD-4Pal-SI-αMeL-LD-Orn-K((2-[2-(2-Amino-ethoxy)-ethoxy]-acetyl)2-(εK)-(γ-Glu)-CO-(CH2)12-CO2H)AQ-Aib-EFI-(D-Glu)-αMeY-LIEGGK((2-[2-(2-Amino- … (peptide)
# peptide: B1 peptide
# modifications: Aib2, αMeF(2F)6, 4Pal10, αMeL13, Orn16, K17(Z1), Aib20, D-Glu24, αMeY25, K31(Z1), C-term NH2; Z1=AEEA2-(εK)-(γ-Glu)-CO-(CH2)12-CO2H
# B3: Y-Aib-EGT-αMeF(2F)-TSD-4Pal-SI-αMeL-LD-Orn-K((2-[2-(2-Amino-ethoxy)-ethoxy]-acetyl)2-(γ-Glu)-CO-(CH2)12-CO2H)AQ-Aib-EFI-(D-Glu)-αMeY-LIEGGK((2-[2-(2-Amino-ethox … (peptide)
# peptide: B1 peptide
# modifications: Aib2, αMeF(2F)6, 4Pal10, αMeL13, Orn16, K17(Z1), Aib20, D-Glu24, αMeY25, K31(Z1), C-term NH2; Z1=AEEA2-(γ-Glu)-CO-(CH2)12-CO2H
# B4: Y-Aib-EGT-αMeF(2F)-TSD-4Pal-SI-αMeL-LD-Orn-K((γ-Glu)-(2-[2-(2-Amino-ethoxy)-ethoxy]-acetyl)2-CO-(CH2)12-CO2H)AQ-Aib-EFI-(D-Glu)-αMeY-LIEGGK((γ-Glu)-(2-[2-(2-Ami … (peptide)
# peptide: B1 peptide
# modifications: Aib2, αMeF(2F)6, 4Pal10, αMeL13, Orn16, K17(Z1), Aib20, D-Glu24, αMeY25, K31(Z1), C-term NH2; Z1=(γ-Glu)-AEEA2-CO-(CH2)12-CO2H
# B5: Y-Aib-EGT-αMeF-TSD-αMeF-SI-αMeL-LD-Orn-K((2-[2-(2-Amino-ethoxy)-ethoxy]-acetyl)2-(γ-Glu)-CO-(CH2)12-CO2H)AQ-Aib-EFI-(D-Glu)-αMeY-LIEGGK((2-[2-(2-Amino-ethoxy)-e … (peptide)
# peptide: B1 peptide
# modifications: Aib2, αMeF6, αMeF10, αMeL13, Orn16, K17(Z1), Aib20, D-Glu24, αMeY25, K31(Z1), C-term NH2; Z1=AEEA2-(γ-Glu)-CO-(CH2)12-CO2H
# B6: Y-Aib-EGT-αMeF(2F)-TSD-4Pal-SI-αMeL-LD-Orn-K((2-[2-(2-Amino-ethoxy)-ethoxy]-acetyl)3-(γ-Glu)-CO-(CH2)12-CO2H)AQ-Aib-EFI-(D-Glu)-αMeY-LIEGGK((2-[2-(2-Amino-ethox … (peptide)
# peptide: B1 peptide
# modifications: Aib2, αMeF(2F)6, 4Pal10, αMeL13, Orn16, K17(Z1), Aib20, D-Glu24, αMeY25, K31(Z1), C-term NH2; Z1=AEEA3-(γ-Glu)-CO-(CH2)12-CO2H
# B7: Y-Aib-EGT-αMeF-TSD-4Pal-SI-αMeL-LD-Orn-K((2-[2-(2-Amino-ethoxy)-ethoxy]-acetyl)2-(γ-Glu)-CO-(CH2)12-CO2H)AQ-Aib-EFI-(D-Glu)-αMeY-LIEGGK((2-[2-(2-Amino-ethoxy)-e … (peptide)
# peptide: B1 peptide
# modifications: Aib2, αMeF6, 4Pal10, αMeL13, Orn16, K17(Z1), Aib20, D-Glu24, αMeY25, K31(Z1), C-term NH2; Z1=AEEA2-(γ-Glu)-CO-(CH2)12-CO2H
# B8: Y-Aib-EGT-αMeF-TSD-4Pal-SI-αMeL-LD-Orn-K((2-[2-(2-Amino-ethoxy)-ethoxy]-acetyl)2-(γ-Glu)-CO-(CH2)12-CO2H)AQ-Aib-EFI-(D-Glu)-αMeF-LIEGGK((2-[2-(2-Amino-ethoxy)-e … (peptide)
# peptide: B1 peptide
# modifications: Aib2, αMeF6, 4Pal10, αMeL13, Orn16, K17(Z1), Aib20, D-Glu24, αMeF25, K31(Z1), C-term NH2; Z1=AEEA2-(γ-Glu)-CO-(CH2)12-CO2H
# B9: Y-Aib-EGT-αMeF-TSD-4Pal-SI-αMeF-LD-Orn-K((2-[2-(2-Amino-ethoxy)-ethoxy]-acetyl)2-(γ-Glu)-CO-(CH2)12-CO2H)AQ-Aib-EFI-(D-Glu)-αMeY-LIEGGK((2-[2-(2-Amino-ethoxy)-e … (peptide)
# peptide: B1 peptide
# modifications: Aib2, αMeF6, 4Pal10, αMeF13, Orn16, K17(Z1), Aib20, D-Glu24, αMeY25, K31(Z1), C-term NH2; Z1=AEEA2-(γ-Glu)-CO-(CH2)12-CO2H
# B10: Y-Aib-EGT-αMeF(2F)-TSD-4Pal-SI-αMeL-LD-Orn-K((εK)-(2-[2-(2-Amino-ethoxy)-ethoxy]-acetyl)2-(γ-Glu)-CO-(CH2)12-CO2H)AQ-Aib-EFI-(D-Glu)-αMeY-LIEGGK((εK)-(2-[2-(2-A … (peptide)
# peptide: B1 peptide
# modifications: Aib2, αMeF(2F)6, 4Pal10, αMeL13, Orn16, K17(Z1), Aib20, D-Glu24, αMeY25, K31(Z1), C-term NH2; Z1=(εK)-AEEA2-(γ-Glu)-CO-(CH2)12-CO2H
# B11: Y-Aib-EGT-αMeF(2F)-TSD-4Pal-SI-αMeL-LD-Orn-K((2-[2-(2-Amino-ethoxy)-ethoxy]-acetyl)2-(γ-Glu)-CO-(CH2)12-CO2H)AQ-Aib-EFI-(D-Glu)-αMeY-LIK((2-[2-(2-Amino-ethoxy)- … (peptide)
# peptide: B1 peptide with E28K, K31P
# modifications: Aib2, αMeF(2F)6, 4Pal10, αMeL13, Orn16, K17(Z1), Aib20, D-Glu24, αMeY25, K28(Z1), C-term NH2; Z1=AEEA2-(γ-Glu)-CO-(CH2)12-CO2H
# B12: Y-Aib-EGT-αMeF(2F)-TSD-4Pal-SK((2-[2-(2-Amino-ethoxy)-ethoxy]-acetyl)2-(γ-Glu)-CO-(CH2)12-CO2H)-αMeL-LD-Orn-K((2-[2-(2-Amino-ethoxy)-ethoxy]-acetyl)2-(γ-Glu)-CO … (peptide)
# peptide: B1 peptide with I12K, K31P
# modifications: Aib2, αMeF(2F)6, 4Pal10, K12(Z1), αMeL13, Orn16, K17(Z1), Aib20, D-Glu24, αMeY25, C-term NH2; Z1=AEEA2-(γ-Glu)-CO-(CH2)12-CO2H
# B13: Y-Aib-EGT-αMeF(2F)-TSD-4Pal-SI-αMeL-LD-Orn-K((2-[2-(2-Amino-ethoxy)-ethoxy]-acetyl)2-(γ-Glu)-CO-(CH2)12-CO2H)AQ-Aib-K((2-[2-(2-Amino-ethoxy)-ethoxy]-acetyl)2-(γ … (peptide)
# peptide: B1 peptide with E21K, K31P
# modifications: Aib2, αMeF(2F)6, 4Pal10, αMeL13, Orn16, K17(Z1), Aib20, K21(Z1), D-Glu24, αMeY25, C-term NH2; Z1=AEEA2-(γ-Glu)-CO-(CH2)12-CO2H
# B14: Y-Aib-EGT-αMeF(2F)-TSD-4Pal-SI-αMeL-LD-Orn-K((2-[2-(2-Amino-ethoxy)-ethoxy]-acetyl)2-(γ-Glu)-CO-(CH2)12-CO2H)AQ-Aib-EFI-(D-Glu)-αMeY-LIEGK((2-[2-(2-Amino-ethoxy … (peptide)
# peptide: B1 peptide with G30K, K31P
# modifications: Aib2, αMeF(2F)6, 4Pal10, αMeL13, Orn16, K17(Z1), Aib20, D-Glu24, αMeY25, K30(Z1), C-term NH2; Z1=AEEA2-(γ-Glu)-CO-(CH2)12-CO2H
# B15: Y-Aib-EGT-αMeF(2F)-TSD-4Pal-SI-αMeL-LD-Orn-K((2-[2-(2-Amino-ethoxy)-ethoxy]-acetyl)2-(γ-Glu)-CO-(CH2)10-CH3)AQ-Aib-EFI-(D-Glu)-αMeY-LIK((2-[2-(2-Amino-ethoxy)-e … (peptide)
# peptide: B1 peptide with E28K, K31P
# modifications: Aib2, αMeF(2F)6, 4Pal10, αMeL13, Orn16, K17(Z1), Aib20, D-Glu24, αMeY25, K28(Z1), C-term NH2; Z1=AEEA2-(γ-Glu)-CO-(CH2)10-CH3
# B16: Example 140 (peptide)
# peptide: B1 peptide with G30K, K31P
# modifications: Aib2, αMeF(2F)6, 4Pal10, αMeL13, Orn16, Aib20, D-Glu24, αMeY25, K17 and K30: K(AEEA2-(γ-Glu)-CO-(CH2)10-CH3), C-terminal NH2
# B17: Example 14 (peptide)
# peptide: B1 peptide
# modifications: Aib2, αMeF(2F)6, 4Pal10, αMeL13, Orn16, Aib20, D-Glu24, αMeY25, K17 and K31: K(AEEA-(γ-Glu)-CO-(CH2)10-CH3), C-terminal NH2
# Molecular target: T3, human GLP-1 receptor (human, UniProt P43220 24-463)
# T3 construct: whole, on cells; also called hGLP-1R; human glucagon-like peptide-1 receptor
# Test: SPA competition vs [125I]-GLP-1, hGLP-1R membranes
# Description: The binding buffer contains 25 mM HEPES, pH 7.4, 2.5 mM CaCl₂, 1 mM MgCl₂, 0.1% (w/v) bacitracin, 0.003% (w/v) TWEEN®-20, and Roche Complete™ Protease Inhibitors without EDTA.
# (§1) Data are analyzed using four-parameter (curve maximum, curve minimum, IC₅₀, Hill slope) nonlinear regression routines (Genedata Screener, version 12.0.4, Genedata AG, Basal, Switzerland). […] Values for Kᵢ are reported as the geometric mean, with error expressed as the standard error of the mean (SEM) and n is equal to the number of independent replicates (determined in assays performed on different days). Geometric Means are calculated as follows: […]
row,Binder,Ki
1,B1,2.5 nM
2,B2,2.81 nM
3,B3,2.33 nM
4,B4,2.06 nM
5,B5,6.9 nM
6,B6,2.66 nM
7,B7,3.08 nM
8,B8,3.67 nM
9,B9,6.1 nM
10,B10,2.22 nM
11,B11,3.18 nM
12,B12,3.01 nM
13,B13,2.11 nM
14,B14,8.41 nM
15,B15,0.268 nM

# Molecular target: T1, human GIP receptor
# Test: cell-based or functional assay
Binder,"EC50, cAMP","Emax, cAMP"
B16,0.0121 nM,98.5%
B17,0.00802 nM,

# Molecular target: human glucagon receptor (human, UniProt P47871 26-477)
# Test: cell-based or functional assay
row,Binder,"EC50, cAMP"
1,B16,> 9950 nM
2,B17,> 9950 nM

# Molecular target: human GLP-1 receptor (human, UniProt P43220 24-463)
# Test: cell-based or functional assay
row,Binder,"EC50, cAMP"
1,B16,0.131 nM
2,B17,0.0884 nM

# Molecular target: T2, human GIP receptor
# Test: SPA competition vs [125I]-GIP, hGIPR membranes
# Description: The binding buffer contains 25 mM HEPES, pH 7.4, 2.5 mM CaCl₂, 1 mM MgCl₂, 0.1% (w/v) bacitracin, 0.003% (w/v) TWEEN®-20, and Roche Complete™ Protease Inhibitors without EDTA. […] Plates are sealed and mixed on a plate shaker (setting 6) for 1 minute and read with a PerkinElmer Trilux MicroBeta® scintillation counter after 2.5 to 12 hours of incubation/settling time at room temperature.
# as §1
row,Binder,Ki
1,B1,0.092 nM
2,B2,0.131 nM
3,B3,0.088 nM
4,B4,0.108 nM
5,B5,0.0891 nM
6,B6,0.0653 nM
7,B7,0.0595 nM
8,B8,0.0621 nM
9,B9,0.0683 nM
10,B10,0.171 nM
11,B11,0.0649 nM
12,B12,0.0972 nM
13,B13,0.0629 nM
14,B14,0.0769 nM
15,B15,0.0415 nM
